Measurements published in publication PMC2121097.
Read-outs that look alike come from different tables or passages of the source.

How the values were obtained:
[1] = target: Dictyostelium actin filaments (F-actin) (Dictyostelium) (UniProt P07830); assay: steady-state actin critical concentration, sedimentation
[2] = target: Dictyostelium actin monomer (G-actin) (Dictyostelium) (UniProt P07830); assay: other fluorescence titration
[3] = target: Dictyostelium actin filaments (F-actin) (Dictyostelium) (UniProt P07830); assay: steady-state actin critical concentration, calibrated pyrene fluorescence
[4] = target: Dictyostelium actin filaments (F-actin) (Dictyostelium) (UniProt P07830); assay: steady-state actin critical concentration, uncalibrated pyrene fluorescence
[5] = target: Dictyostelium actin monomer (G-actin) (Dictyostelium) (UniProt P07830); assay: other fluorescence titration; remark: listed apart in the source
[6] = target: Dictyostelium actin monomer (G-actin) (Dictyostelium) (UniProt P07830); assay: other fluorescence titration; remark: listed apart in the source

Kd [1]: 400 nM | Kd [2]: 3900 nM | Kd [3]: 140 nM | Kd [4]: 920 nM | Kd [5]: 700 nM | Kd [6]: 1400 nM
Substance: Dictyostelium elongation factor 1 alpha (EF1 alpha) (from UniProt P0CT31 1-453) (natural protein)
